Laboratory results taken from PMC13649712 (2026).
Read-outs that look alike come from different tables or passages of the source.

Experiments:
[1] = biological target: T1, mouse PER1 1013-1291 R1111A (mouse, UniProt O35973 1013-1291, R1111A); experiment: ITC
[2] = biological target: T1, mouse PER1 1013-1291 R1111A; experiment: ITC; remark: listed apart in the source

B1: mouse CRY1 1-496 (PHR) (domain or fragment)
chain: MGVNAVHWFRKGLRLHDNPALKECIQGADTIRCVYILDPWFAGSSNVGINRWRFLLQCLEDLDANLRKLNSRLFVIRGQPADVFPRLFKEWNITKLSIEYDSEPFGKERDAAIKKLATEAGVEVIVRISHTLYDLDKIIELNGGQPPLTYKRFQTLVSKMEPLEMPADTITSDVIGKCMTPLSDDHDEKYGVPSLEELGFDTDGLSSAVWPGGETEALTRLERHLERKAWVANFERPRMNANSLLASPTGLSPYLRFGCLSCRLFYFKLTDLYKKVKKNSSPPLSLYGQLLWREFFYTAATNNPRFDKMEGNPICVQIPWDKNPEALAKWAEGRTGFPWIDAIMTQLRQEGWIHHLARHAVACFLTRGDLWISWEEGMKVFEELLLDADWSINAGSWMWLSCSSFFQQFFHCYCPVGFGRRTDPNGDYIRRYLPVLRGFPAKYIYDPWNAPEGIQKVAKCLIGVNYPKPMVNHAEASRLNIERMKQIYQQLSRYRG
Kd [1]: 9.8 nM | Kd [2]: 10 nM
